The results in this text go back to US20240209076A1 (KODIAK SCIENCES, published 2024).

The chains are these.
B1: Anti-IL-6 antibody, heavy chain S35H, G66D / light chain M32L, M50D, N52S, M88Q (antibody, IgG1, V domains shown)
VH: EVQLVESGGGLVQPGGSLRLSCAASGFTFSPFAMHWVRQAPGKGLEWVAKISPGGSWTYYSDTVTDRFTFSLDTSKSTAYLQMNSLRAEDTAVYYCARQLWGYYALDIWGQGTLVTVSS
VL: DIQLTQSPSSLSASVGDRVTITCSASISVSYLYWYQQKPGKAPKLLIYDDSSLASGVPSRFSGSGSGTDFTLTISSLQPEDFATYYCQQWSGYPYTFGQGTKVEIK
notes: IgG1; variable domains only; VL is variant III
B2: Anti-IL-6 antibody, heavy chain S35H, G66D, L100A / light chain M32L, M50D, N52S, M88Q (antibody, IgG1, V domains shown)
VH: B1 VH with L100A
VL: B1 VL
notes: as for B1
B3: Anti-IL-6 antibody, heavy chain S35H, G66D, L100V / light chain M32L, M50D, N52S, M88Q (antibody, IgG1, V domains shown)
VH: B1 VH with L100V
VL: B1 VL
notes: as for B1
B4: Anti-IL-6 antibody, heavy chain WT / light chain WT (antibody, IgG1, V domains shown)
VH: B1 VH with H35S, D66G
VL: B1 VL with L32M, D50M, S52N, Q88M
notes: IgG1; variable domains only; also called parent; wild-type
B5: Anti-IL-6 antibody, heavy chain S35H, G66D, L100K / light chain M32L, M50D, N52S, M88Q (antibody, IgG1, V domains shown)
VH: B1 VH with L100K
VL: B1 VL
notes: as for B1
B6: Anti-IL-6 antibody, heavy chain S35H, G66D, L100G / light chain M32L, M50D, N52S, M88Q (antibody, IgG1, V domains shown)
VH: B1 VH with L100G
VL: B1 VL
notes: as for B1
B7: Anti-IL-6 antibody, heavy chain S35H, G66D, L100T / light chain M32L, M50D, N52S, M88Q (antibody, IgG1, V domains shown)
VH: B1 VH with L100T
VL: B1 VL
notes: as for B1
B8: Anti-IL-6 antibody, heavy chain S35H, G66D, L100S / light chain M32L, M50D, N52S, M88Q (antibody, IgG1, V domains shown)
VH: B1 VH with L100S
VL: B1 VL
notes: as for B1
B9: Anti-IL-6 antibody, heavy chain S35H, G66D, L100Q / light chain M32L, M50D, N52S, M88Q (antibody, IgG1, V domains shown)
VH: B1 VH with L100Q
VL: B1 VL
notes: as for B1
B10: anti-IL-6 antibody, heavy chain WT / light chain M32L, M50D, N52S, M88Q (antibody, IgG1, V domains shown)
VH: B1 VH with H35S, D66G
VL: B1 VL
notes: Full IgG1 (Expi293); VL = variant III
B11: anti-IL-6 antibody, heavy chain G66D / light chain M32L, M50D, N52S, M88Q (antibody, IgG1, V domains shown)
VH: B1 VH with H35S
VL: B1 VL
notes: as for B10
B12: anti-IL-6 antibody, heavy chain T63E, G66D / light chain M32L, M50D, N52S, M88Q (antibody, IgG1, V domains shown)
VH: B1 VH with H35S, T63E
VL: B1 VL
notes: as for B10
B13: anti-IL-6 antibody, heavy chain T65Q, G66D / light chain M32L, M50D, N52S, M88Q (antibody, IgG1, V domains shown)
VH: B1 VH with H35S, T65Q
VL: B1 VL
notes: as for B10
B14: anti-IL-6 antibody, heavy chain T63Q, G66D / light chain M32L, M50D, N52S, M88Q (antibody, IgG1, V domains shown)
VH: B1 VH with H35S, T63Q
VL: B1 VL
notes: as for B10
B15: anti-IL-6 antibody, heavy chain T63K, G66D / light chain M32L, M50D, N52S, M88Q (antibody, IgG1, V domains shown)
VH: B1 VH with H35S, T63K
VL: B1 VL
notes: as for B10
B16: anti-IL-6 antibody, heavy chain S35H, G66D / light chain M32L, M50D, N52S, M88Q (antibody, IgG1, V domains shown)
VH: B1 VH
VL: B1 VL
notes: as for B10
B17: anti-IL-6 antibody, heavy chain WT / light chain M32L, M50D, N52S, M88Q (antibody, human IgG1, V domains shown)
VH: B1 VH with H35S, D66G
VL: B1 VL
notes: Human IgG1

Positions count from the first letter of the chain named. Names may count otherwise.

The first experiment has as its target T1, human IL-6 (human, UniProt P05231 30-212). Put plainly: SPR Biacore, purified, Protein A capture, 37 C. How it is done:
(§1) Antibodies were captured on a Protein A chip (GE) by injecting 1:20 cell supernatant dilutions at 10 μL/min for 60 seconds. […] The sensor chip was regenerated by a 60 seconds injection of 10 mM Glycine pH 1.7 at the flow rate of 50 μL/min. […] For this setup, 1 μg/mL of purified antibody was injected over a Protein A chip at 10 μL/min for 25 seconds. […] The sensor chip was regenerated by a 60 seconds injection of 10 mM Glycine pH 1.7 at flow rate of 50 μL/min. Data analysis for supernatant and purified samples were performed using BIAevaluation software (GE). All sensorgrams were double reference subtracted and fit using a 1:1 Langmuir binding model.
(In general: SPR reads the build-up and loss of mass on a sensor chip optically.)
T1 sequence (P05231 30-212 limits assumed): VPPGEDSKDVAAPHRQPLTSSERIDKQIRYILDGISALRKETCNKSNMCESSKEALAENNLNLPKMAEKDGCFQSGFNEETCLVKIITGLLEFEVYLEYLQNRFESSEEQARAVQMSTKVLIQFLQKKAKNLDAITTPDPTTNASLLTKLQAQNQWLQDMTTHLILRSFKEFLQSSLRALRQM
Take B1: the Kd came to 0.195 nM, the off-rate (koff) was determined as 0.000238 s⁻¹ and the kon stood at 1.22e+06 M⁻¹ s⁻¹.
As to B2, the affinity, expressed as Kd, was 0.109 nM; the koff was 0.000406 s⁻¹; the kon was 3.72e+06 M⁻¹ s⁻¹.
B3 registered a Kd of 0.238 nM, a dissociation rate constant (koff) of 0.000385 s⁻¹ and a kon of 1.62e+06 M⁻¹ s⁻¹.
With B4, the Kd worked out at 0.214 nM, the koff stood at 0.000132 s⁻¹ and the on-rate (kon) is 615000 M⁻¹ s⁻¹.
The matching figures for B5: 0.188 nM, 0.000279 s⁻¹ and 1.49e+06 M⁻¹ s⁻¹.
Taken in the same sequence, the figures for B6 were 0.251 nM, 0.000694 s⁻¹ and 2.76e+06 M⁻¹ s⁻¹.
B7 registered a Kd of 0.263 nM, a koff of 0.000481 s⁻¹ and a kon of 1.83e+06 M⁻¹ s⁻¹.
Taken in the same sequence, the figures for B8 were 0.117 nM, 0.000424 s⁻¹ and 3.61e+06 M⁻¹ s⁻¹.
B9 yielded a Kd of 0.149 nM, a koff of 0.000336 s⁻¹ and a kon of 2.26e+06 M⁻¹ s⁻¹.

A further experiment addresses T2, human IL-6 (human, UniProt P05231 30-212).
T2 construct: IL-6 flowed over captured antibodies
In words: SPR Biacore, purified Ab on Protein A chip, 37 C. How it is done:
as §1
T2 sequence (P05231 30-212 limits assumed): as above
Turning to B10, binding was put at a Kd of 0.286 nM, the koff is 0.000319 s⁻¹ and the kon was 1.12e+06 M⁻¹ s⁻¹.
Taken in the same sequence, the figures for B11 were 0.244 nM, 0.000412 s⁻¹ and 1.69e+06 M⁻¹ s⁻¹.
As to B12, the affinity, expressed as Kd, was 0.198 nM; the koff came to 0.000327 s⁻¹; the on-rate constant (kon) came to 1.65e+06 M⁻¹ s⁻¹.
The matching figures for B13: 0.209 nM, 0.00038 s⁻¹ and 1.82e+06 M⁻¹ s⁻¹.
On to B14, for which binding was characterised by a dissociation constant (Kd) of 0.201 nM, the koff worked out at 0.000341 s⁻¹ and the on-rate constant (kon) came out at 1.69e+06 M⁻¹ s⁻¹.
For B15, the Kd stood at 0.252 nM, the koff is 0.000401 s⁻¹ and the on-rate constant (kon) came to 1.59e+06 M⁻¹ s⁻¹.
Molecule B16 yielded a Kd of 0.212 nM, a koff of 0.000254 s⁻¹ and an association rate constant (kon) of 1.2e+06 M⁻¹ s⁻¹.

The next experiment concerns the target T1, human IL-6. Put plainly: SPR Biacore, supernatant, Protein A capture, 37 C. The method in brief:
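Antibodies from 1:20-diluted culture supernatant in HBS-EP+ were captured on a Protein A chip at 37 C, with 10 mM glycine pH 1.7 regeneration. Sensorgrams were double-reference subtracted and fitted to a 1:1 Langmuir model.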
The molecule B1 displayed a Kd of 0.403 nM, a dissociation rate constant (koff) of 0.000607 s⁻¹ and a kon of 1.5e+06 M⁻¹ s⁻¹.
The matching figures for B2: 0.0834 nM, 0.00486 s⁻¹ and 5.82e+07 M⁻¹ s⁻¹.
The matching figures for B3: 0.184 nM, 0.000922 s⁻¹ and 5.01e+06 M⁻¹ s⁻¹.
Taken in the same sequence, the figures for B4 were 0.649 nM, 0.000559 s⁻¹ and 861000 M⁻¹ s⁻¹.
B5 registered a Kd of 0.191 nM, a koff of 0.000822 s⁻¹ and a kon of 4.29e+06 M⁻¹ s⁻¹.
B6 showed a Kd of 0.233 nM, a koff of 0.0016 s⁻¹ and a kon of 6.87e+06 M⁻¹ s⁻¹.
As for B7, the Kd was 0.204 nM, the koff was 0.00278 s⁻¹ and the kon came to 1.36e+07 M⁻¹ s⁻¹.
The matching figures for B8: 0.114 nM, 0.000913 s⁻¹ and 8.03e+06 M⁻¹ s⁻¹.
The matching figures for B9: 0.148 nM, 0.000734 s⁻¹ and 4.97e+06 M⁻¹ s⁻¹.

For a further experiment, the target named is T2, human IL-6. In words: SPR Biacore, supernatant Ab on Protein A chip, 37 C.
Molecule B10 gave a Kd of 0.611 nM, an off-rate (koff) of 0.000414 s⁻¹ and a kon of 677000 M⁻¹ s⁻¹.
Taken in the same sequence, the figures for B11 were 0.296 nM, 0.000483 s⁻¹ and 1.63e+06 M⁻¹ s⁻¹.
With B12, the Kd was found to be 0.242 nM, the koff is 0.000485 s⁻¹ and the kon was 2e+06 M⁻¹ s⁻¹.
Turning to B13, binding was characterised by a dissociation constant (Kd) of 0.258 nM, the off-rate (koff) turned out to be 0.000562 s⁻¹ and the kon is 2.18e+06 M⁻¹ s⁻¹.
Taken in the same sequence, the figures for B14 were 0.259 nM, 0.000461 s⁻¹ and 1.78e+06 M⁻¹ s⁻¹.
Taken in the same sequence, the figures for B15 were 0.246 nM, 0.000529 s⁻¹ and 2.15e+06 M⁻¹ s⁻¹.
The matching figures for B16: 0.166 nM, 0.000539 s⁻¹ and 3.24e+06 M⁻¹ s⁻¹.

A further experiment addresses T3, human IL-6 (human, UniProt P05231 30-212). Put plainly: SPR (Biacore), purified antibody on Protein A chip, IL-6 flowed, 37 C. How it is done:
as §1
T3 sequence (P05231 30-212 limits assumed): as above
In turn, B17 displayed a Kd of 0.286 nM, a koff of 0.000319 s⁻¹ and a kon of 1.12e+06 M⁻¹ s⁻¹.

The next experiment concerns the target T3, human IL-6. In words: SPR (Biacore), supernatant antibody on Protein A chip, IL-6 flowed, 37 C.
The molecule B17 yielded a Kd of 0.611 nM, a koff of 0.000414 s⁻¹ and a kon of 677000 M⁻¹ s⁻¹.

As usually defined, the Kd is the equilibrium constant for the complex coming apart. Low values mean a tighter complex, high ones a looser complex. In general, koff refers to a measure of how fast the partners let go of each other. As usually defined, the kon is the second-order rate constant of association. Read a high kon as fast association.
